Measurements: US20250277048A1 (Regeneron, published 2025)

B1: REGN16431 (bispecific antibody, human IgG4 S228P, kappa)
heavy 1: QLQLQESGPGLVRPSETLSLTCSVSGASMNTNNYYWGWIRQPPGKGLEWIGSGYYNGNTYYNPSLKSRVTISVDTSKNQFSLKLNSVTAADTAVYYCARQTPPRIIGSPNIWGQGTMVTVSSASTKGPSVFPLAPCSRSTSESTAALGCLVKDYFPEPVTVSWNSGALTSGVHTFPAVLQSSGLYSLSSVVTVPSSSLGTKTYTCNVDHKPSNTKVDKRVESKYGPPCPPCPAPPVAGPSVFLFPPKPKDTLMISRTPEVTCVVVDVSQEDPEVQFNWYVDGVEVHNAKTKPREEQFNSTYRVVSVLTVLHQDWLNGKEYKCKVSNKGLPSSIEKTISKAKGQPREPQVYTLPPSQEEMTKNQVSLTCLVKGFYPSDIAVEWESNGQPENNYKTTPPVLDSDGSFFLYSRLTVDKSRWQEGNVFSCSVMHEALHNHYTQKSLSLSLGK
heavy 2: EVQLVESGGGLVQPGGSLRLSCAASGFTFGSYGMAWVRQAPGKGLEWVSAISGSGDYTNYADSVKRRFTISRDNSKNTLYLQMSSLRAEDTAVYYCAKEKTGTTGYLYSGMDVWGQGTTVTVSSASTKGPSVFPLAPCSRSTSESTAALGCLVKDYFPEPVTVSWNSGALTSGVHTFPAVLQSSGLYSLSSVVTVPSSSLGTKTYTCNVDHKPSNTKVDKRVESKYGPPCPPCPAPPVAGPSVFLFPPKPKDTLMISRTPEVTCVVVDVSQEDPEVQFNWYVDGVEVHNAKTKPREEQFNSTYRVVSVLTVLHQDWLNGKEYKCKVSNKGLPSSIEKTISKAKGQPREPQVYTLPPSQEEMTKNQVSLTCLVKGFYPSDIAVEWESNGQPENNYKTTPPVLDSDGSFFLYSRLTVDKSRWQEGNVFSCSVMHEALHNRFTQKSLSLSPGK
light: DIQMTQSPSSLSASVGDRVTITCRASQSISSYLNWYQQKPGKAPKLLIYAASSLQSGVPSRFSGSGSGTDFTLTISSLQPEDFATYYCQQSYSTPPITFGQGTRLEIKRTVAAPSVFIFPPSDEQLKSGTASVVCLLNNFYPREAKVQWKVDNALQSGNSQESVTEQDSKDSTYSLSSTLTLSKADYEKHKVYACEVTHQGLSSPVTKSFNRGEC
notes: D1 arm from 21519P2, D2 arm from 21520P2, common light chain; also called CD40xCD40 (21519 x 21520)
B2: REGN16432 (bispecific antibody, human IgG4 S228P, kappa)
heavy 1: EVQLVESGGGLVQPGGSLRLSCAASGFTFSSYAMNWVRQAPGKGLEWVSIISGTIGKTYYADSVKGRFTISRDNSKNTLYLQMNSLRGEDTAVYYCAKDTERDITGSPFDYWGQGTLVTVSSASTKGPSVFPLAPCSRSTSESTAALGCLVKDYFPEPVTVSWNSGALTSGVHTFPAVLQSSGLYSLSSVVTVPSSSLGTKTYTCNVDHKPSNTKVDKRVESKYGPPCPPCPAPPVAGPSVFLFPPKPKDTLMISRTPEVTCVVVDVSQEDPEVQFNWYVDGVEVHNAKTKPREEQFNSTYRVVSVLTVLHQDWLNGKEYKCKVSNKGLPSSIEKTISKAKGQPREPQVYTLPPSQEEMTKNQVSLTCLVKGFYPSDIAVEWESNGQPENNYKTTPPVLDSDGSFFLYSRLTVDKSRWQEGNVFSCSVMHEALHNHYTQKSLSLSLGK
heavy 2: B1 heavy 2
light: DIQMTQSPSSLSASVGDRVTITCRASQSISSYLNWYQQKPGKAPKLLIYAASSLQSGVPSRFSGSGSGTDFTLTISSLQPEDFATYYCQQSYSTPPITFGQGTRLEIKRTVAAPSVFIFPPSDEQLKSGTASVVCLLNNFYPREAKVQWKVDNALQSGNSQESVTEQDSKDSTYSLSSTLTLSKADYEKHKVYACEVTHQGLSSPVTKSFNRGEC
notes: D1 arm from 30027P2, D2 arm from 21520P2, common light chain; also called CD40xCD40 (30027 x 21520)
B3: 21519P2 (antibody, human IgG4 S228P, kappa, V domains shown)
VH: QLQLQESGPGLVRPSETLSLTCSVSGASMNTNNYYWGWIRQPPGKGLEWIGSGYYNGNTYYNPSLKSRVTISVDTSKNQFSLKLNSVTAADTAVYYCARQTPPRIIGSPNIWGQGTMVTVSS
VL: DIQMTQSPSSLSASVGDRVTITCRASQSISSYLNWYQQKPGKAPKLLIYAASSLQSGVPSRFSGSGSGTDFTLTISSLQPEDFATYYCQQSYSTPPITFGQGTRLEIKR
notes: parental bivalent anti-CD40 mAb; common light chain; also called H4sH21519P2
B4: 21520P2 (antibody, human IgG4 S228P, kappa, V domains shown)
VH: EVQLVESGGGLVQPGGSLRLSCAASGFTFGSYGMAWVRQAPGKGLEWVSAISGSGDYTNYADSVKRRFTISRDNSKNTLYLQMSSLRAEDTAVYYCAKEKTGTTGYLYSGMDVWGQGTTVTVSS
VL: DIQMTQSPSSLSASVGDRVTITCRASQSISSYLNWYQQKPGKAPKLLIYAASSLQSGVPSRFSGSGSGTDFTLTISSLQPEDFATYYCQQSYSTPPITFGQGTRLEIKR
notes: parental bivalent anti-CD40 mAb; common light chain; also called H4sH21520P2
B5: 30027P2 (antibody, human IgG4 S228P, kappa, V domains shown)
VH: EVQLVESGGGLVQPGGSLRLSCAASGFTFSSYAMNWVRQAPGKGLEWVSIISGTIGKTYYADSVKGRFTISRDNSKNTLYLQMNSLRGEDTAVYYCAKDTERDITGSPFDYWGQGTLVTVSS
VL: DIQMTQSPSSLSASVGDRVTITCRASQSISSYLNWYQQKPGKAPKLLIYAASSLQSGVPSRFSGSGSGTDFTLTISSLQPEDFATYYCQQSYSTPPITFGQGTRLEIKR
notes: parental bivalent anti-CD40 mAb; common light chain; also called H4sH30027P2

Assays:
[1] = target: T1, human CD40 (hCD40) expressed on cells (human, UniProt P25942 21-277); assay: cell-based or functional assay
[2] = target: T1, human CD40 (hCD40) expressed on cells; assay: cell-based or functional assay; remark: listed apart in the source
[3] = target: T2, human CD40 extracellular domain expressed with a C-terminal myc-myc-hexahistidine tag (human); assay: ELISA blocking of 40 nM hCD40-mmH binding to 9His-hCD40L
T2 construct: also called hCD40-MMH; hCD40-mmH
Source text: An ELISA-based blocking assay was developed to determine the ability of C40×CD40 bispecific antibodies to block the binding of the hCD40 monomer to plate-coated hCD40L. The recombinant human CD40-mmH protein (hCD40-MMH; REGN3094; SEQ ID NO: 53) used in the experiments comprises a portion of the human CD40 extracellular domain (amino acids P20-R193) fused to 2×Myc peptide and 6×histadine (SEQ ID NO: 1110) at the C-terminus of human CD40, and the human CD40L (accession #NM_000074.2) with amino acids E108-L261 of the extracellular domain with 9×His-2×(SGGG)-IGER at the N-terminus (9His-hCD40L) was commercially obtained from Biolegend.
In the blocking assay, 9His-hCD40L was passively absorbed at a concentration of 5 μg/mL in PBS on a 96-well microtiter plate overnight at 4° C. […] In a separate 96-well microtiter plate, a fixed amount of 40 nM hCD40-mmH was pre-mixed with one of the following antibodies, at concentrations ranging from 977 pM to 1 μM in PBS+0.5% BSA: (1) CD40×CD40 bispecific antibodies (REGN16431, REGN16432, REGN16634, and REGN16335); (2) parental CD40 mAbs (bivalent antibodies comprising 2 fragment antigen-binding [Fab] arms identical to one of anti-CD40 Fab of CD40×CD40 antibodies); (3) CD40×Irrelevant antibodies (bivalent antibodies that incorporate one Fab arm identical to one of anti-CD40 Fab of CD40×CD40 antibodies and another Fab arm specific to an irrelevant antigen); and (4) human IgG4 with Fc mutation isotype control antibodies (REGN7540 and REGN4513). The fixed concentration of hCD40-mmH was selected to be near the concentration (EC₅₀ value) that generated 50% of the maximal binding to the plate-adhered 9His-hCD40L. After one-hour incubation, the antibody-antigen complexes were transferred to the microtiter plate coated with 9His-hCD40L. After one hour incubation at room temperature, the plates were washed, and plate-bound hCD40-mmH protein was detected with horseradish peroxidase (HRP) conjugated goat anti-c-Myc antibody. The plates were then developed using TMB substrate solution (BD Biosciences) according to the manufacturer's recommended procedure and the absorbance at 450 nm (OD₄₅₀) was measured on a SpectraMax i3×plate reader.

[4] = target: T1, human CD40 (hCD40) expressed on cells; assay: cell-based or functional assay; remark: listed apart in the source
[5] = target: T2, human CD40 extracellular domain …; assay: SPR Biacore 4000, mAb captured, 25C; 25° C.
Experimental: The equilibrium dissociation constants (KD) for anti-CD40 bivalent and bispecific monoclonal antibodies (mAbs) were determined using a real-time surface plasmon resonance (SPR)-based Biacore 4000 biosensor. All binding studies were performed in 10 mM HEPES, 150 mM NaCl, 3 mM EDTA, and 0.05% v/v surfactant Tween-20, pH 7.4 (HBS-ET) running buffer at 25° C. and 37° C. The Biacore CM5 sensor surface was first derivatized by amine coupling with a monoclonal mouse anti-human Fc antibody (REGN2567) to capture anti-CD40 bivalent parental and anti-CD40×CD40 bispecific antibodies. […] The dissociation of different CD40 reagents bound to anti-CD40 bivalent parental and anti-CD40×CD40 bispecific antibodies was monitored for 10 minutes in HBS-ET running buffer. […]
(§1) The association rate (ka) and dissociation rate (kd) were determined by fitting the real-time binding sensorgrams to a 1:1 binding model with mass transport limitation using Scrubber 2.0c curve-fitting software. Binding dissociation equilibrium constant (KD) and dissociative half-life (t_{1/2}) were calculated from the kinetic rates as: KD(M)=kd/kₐ, and t_{1/2} (min)=[ln(2)/(60*kd)].

[6] = target: T3, monkey CD40 extracellular domain expressed with a C-terminal myc-myc-hexahistidine tag (monkey); assay: SPR Biacore 4000, mAb captured, 37C
T3 construct: also called mfCD40-MMH; REGN3097
T3 chain: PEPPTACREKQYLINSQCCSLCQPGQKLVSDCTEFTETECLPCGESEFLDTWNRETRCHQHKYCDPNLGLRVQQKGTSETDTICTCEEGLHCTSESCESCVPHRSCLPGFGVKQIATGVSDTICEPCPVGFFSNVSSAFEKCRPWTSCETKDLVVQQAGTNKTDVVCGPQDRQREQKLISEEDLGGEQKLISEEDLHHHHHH
Experimental: The equilibrium dissociation constants (KD) for anti-CD40 bivalent and bispecific monoclonal antibodies (mAbs) were determined using a real-time surface plasmon resonance (SPR)-based Biacore 4000 biosensor. All binding studies were performed in 10 mM HEPES, 150 mM NaCl, 3 mM EDTA, and 0.05% v/v surfactant Tween-20, pH 7.4 (HBS-ET) running buffer at 25° C. and 37° C. The Biacore CM5 sensor surface was first derivatized by amine coupling with a monoclonal mouse anti-human Fc antibody (REGN2567) to capture anti-CD40 bivalent parental and anti-CD40×CD40 bispecific antibodies. Different concentrations of CD40 reagents, human CD40 extracellular domain expressed with a C-terminal myc-myc-hexahistidine tag (SEQ ID NO: 1114) (“hCD40-MMH”; REGN3094; SEQ ID NO: 53), monkey CD40 extracellular domain expressed with a C-terminal myc-myc-hexahistidine tag (SEQ ID NO: 1114) (“mfCD40-MMH”; REGN3097; SEQ ID NO: 54), and mouse CD40 extracellular domain expressed with a C-terminal myc-myc-hexahistidine tag (SEQ ID NO: 1114) (“mCD40-MMH”; REGN3098; SEQ ID NO: 55), at concentrations ranging from 3.7 nM to 100 nM or 3.3 nM to 90 nM in a series of 3-fold dilutions prepared in HBS-ET running buffer were injected at a flow rate of 30 μL/min for 4 minutes or 50 μL/min for 5 minutes. The dissociation of different CD40 reagents bound to anti-CD40 bivalent parental and anti-CD40×CD40 bispecific antibodies was monitored for 10 minutes in HBS-ET running buffer. At the end of each cycle, the anti-CD40 bivalent parental and anti-CD40×CD40 bispecific antibodies capture surface was regenerated using a 12 sec injection of 20 mM H₃PO₄.
as §1

T1 sequence (P25942 21-277): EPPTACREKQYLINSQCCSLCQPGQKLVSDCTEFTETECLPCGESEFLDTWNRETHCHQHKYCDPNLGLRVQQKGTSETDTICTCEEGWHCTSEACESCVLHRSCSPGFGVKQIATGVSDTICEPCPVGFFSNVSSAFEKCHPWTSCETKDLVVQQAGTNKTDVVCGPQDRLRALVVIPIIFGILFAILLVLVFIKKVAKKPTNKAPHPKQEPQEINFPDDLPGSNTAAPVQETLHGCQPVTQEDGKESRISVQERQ

Binder	% max blockade relative to no mAb, IL-10, donor 1 [1]	% max blockade relative to no mAb, IL-10, donor 2 [1]	% max blockade relative to no mAb, IL-10, donor 3 [1]	% max blockade relative to no mAb, TNFa, donor 1 [2]	% max blockade relative to no mAb, TNFa, donor 2 [2]	% max blockade relative to no mAb, TNFa, donor 3 [2]	% Blocking at 1 uM mAb [3]	IC50 [3]	% max blockade relative to no mAb, IL-6, donor 1 [4]	% max blockade relative to no mAb, IL-6, donor 2 [4]	% max blockade relative to no mAb, IL-6, donor 3 [4]	kon [5]	Kd [6]	koff [6]	kon [6]	t1/2 [6]
B1	80.7%	86.9%	89.3%	44.7%	74.1%	70.4%	93%	33 nM	84%	92.7%	92.7%					
B2	81.5%	94.5%	90.6%	53.5%	68.4%	69.1%	95%	32 nM	83.5%	92%	92%					
B3							94%	61 nM				385000 M⁻¹ s⁻¹				
B4							94%	62 nM								
B5							10%						3.16 nM	0.00333 s⁻¹	1.05e+06 M⁻¹ s⁻¹	3.5 min
